Measured values taken from publication PMC6692446, “Characterization of H/D exchange in type 1 pili by proton-detected solid-state NMR and molecular dynamics simulations” (Journal of Biomolecular Nmr, 2019).

Target: the molecule itself
Experiment: H/D exchange followed by proton-detected solid-state NMR; pre-assembled reprotonated pili washed four times with 100% D2O buffer (10 mM sodium phosphate pH 7.0, 0.02% sodium azide), each with 4 h at room temperature; peak volumes of 3D (H)CANH spectra of redeuterated and reprotonated pili compared; 40 kHz MAS, 16.4 T, 17 °C; protection assigned to intra- or intermolecular contacts on the cryo-EM structure PDB 5OH0

B1: FimA, type 1 pilus rod subunit (recombinant, assembled in vitro into type 1 pili) (natural protein, Escherichia coli, UniProt P04128 24-182, looked up)
chain: AATTVNGGTVHFKGEVVNAACAVDAGSVDQTVQLGQVRTASLAQEGATSSAVGFNIQLNDCDTNVASKAAVAFLGTAIDAGHTNVLALQSSAAGSATNVGVQILDRTGAALTLDGATFSSETTLNNGTNTIPFQARYFATGAATPGAANADATFKVQYQ
notes: FimA, major subunit of the type 1 pilus rod of Escherichia coli; Uniformly [2H,13C,15N]-labelled, proton back-exchanged at labile sites; Intramolecular disulfide Cys21-Cys61; In the pilus each subunit's N-terminal donor strand complements the neighbouring subunit; also called polymerized FimA; reprotonated pili
Does B1 bind?
Result: binds
